Residue numbers refer to the chain shown, from its start. Names may count otherwise.
Legend:
[1] = biological target: T1, recombinant human FGF6 (human, UniProt P10767 83-208, limits assumed); assay: SPR (Biacore T100), FGFR-Fc captured on protein A, FGF6 analyte with heparin, bivalent analyte model (KA1)
T1 sequence (looked up): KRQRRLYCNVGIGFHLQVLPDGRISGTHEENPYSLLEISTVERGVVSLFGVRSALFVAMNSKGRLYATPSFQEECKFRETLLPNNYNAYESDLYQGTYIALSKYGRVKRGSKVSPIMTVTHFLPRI
Method: (§1) Materials and Methods: Binding kinetics and affinity studies were performed on a Biacore T100™ system (GE Healthcare, Piscataway, N.J.). Methods for the Biacore T100™ were programmed using Biacore T100™ Control Software, v 2.0. Since each of the FGF receptor molecules contained a human Fc domain, biotinylated protein-A (Thermo Fisher Scientific Inc, Rockford, Ill.) was used as a capture reagent for these studies. Biotinylated protein-A was diluted to concentration of 50 μg/mL in HBS-EP buffer (10 mM HEPES, 150 mM NaCl, 3 mM EDTA, 0.05% Surfactant P20; GE Healthcare, Piscataway, N.J.), and then captured to all four flow cells of a SA (streptavidin) sensor chip. A density of approximately 1100 RU was obtained for each flow cell. Each FGF receptor molecule was subsequently captured via protein-A onto a separate flow cell of the SA chip at an approximate density of 150-250 RU. The Biacore instrument measures the mass of protein bound to the sensor chip surface, and thus, capture of the receptor was verified for each cycle.
(§2) For kinetic binding studies, serial 1:5 dilutions of FGF ligands were prepared from 200 nM-0.06 nM. These samples were injected over the surface and allowed to specifically bind to the FGF receptor captured on the sensor chip. Injections of each ligand concentration were performed with an association time of 7 minutes and dissociation time of 15 minutes. Kinetic binding studies were performed with a flow rate of 50 μL/min. All binding experiments were performed at 25° C. in HBS-P buffer (10 mM HEPES, 150 mM NaCl, 0.05% Surfactant P20, pH 7.4; GE Healthcare, Piscataway, N.J.), containing 50 μg/mL heparin (Calbiochem, La Jolla, Calif.).
(§3) Between cycles, the flow cell was washed with 20 mM hydrochloric acid to regenerate the surface. This wash step removed both the captured FGF receptor and any bound FGF ligand from the protein-A surface, and allowed for the subsequent binding of the next test sample. Data was compiled using the Biacore T100™ Evaluation software (version 2.0). Data was processed by subtracting reference flow cell and blank injections. Baseline stability was assessed to ensure that the regeneration step provided a consistent binding surface throughout the sequence of injections. Duplicate injection curves were checked for reproducibility. Binding curves were globally fit to the bivalent analyte model.

[2] = biological target: human FGF-9 (human, UniProt P31371 4-208); assay: cell-based or functional assay
[3] = biological target: T1, recombinant human FGF6; assay: SPR (Biacore T100), FGFR-Fc captured on protein A, FGF6 analyte with heparin, bivalent analyte model (ka1)
Method: as §1, §2, §3

[4] = biological target: T2, recombinant human FGF-8b (human, UniProt P55075-3 23-215); assay: direct binding ELISA, FGF-8b coated, FGFR-Fc titrated with heparin, anti-human Fc-HRP
T2 sequence (looked up): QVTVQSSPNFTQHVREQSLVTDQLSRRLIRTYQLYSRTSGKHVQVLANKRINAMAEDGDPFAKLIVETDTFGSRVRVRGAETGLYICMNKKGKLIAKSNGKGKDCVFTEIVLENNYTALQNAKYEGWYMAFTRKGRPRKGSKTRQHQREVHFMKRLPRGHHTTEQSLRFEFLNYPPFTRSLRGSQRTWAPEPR
Method: (§4) To determine the binding capability of FGFR-Fc to their respective ligands, an ELISA was run. Recombinant human FGF-8b or FGF-17 (R&D Systems) was plated at 100 nM on a Nunc Maxisorp 96-well plate for 1 h at room temperature with shaking. The plates were blocked with BLOTTO (Thermo Fisher Scientific, Rockford, Ill.) for 1 h at room temperature, then washed 5 times with ELISA C buffer (137 mM NaCl, 2.7 mM KCl, 7.2 mM Na₂HPO₄, 1.5 mM KH₂PO₄, 0.05% (v/w) polysorbate 20, pH 7.2). FGFR-Fcs were diluted to 100 nM with PBS/0.1×BLOTTO/10 ug/ml porcine heparin (Sigma, St. Louis, Mo.) and then 1:2 serial dilutions were made, ending at 0.10 nM. 100 μL of FGFR-Fcs were plated and incubated at 4° C. overnight. The following day, the plates were washed 5 times with ELISA C and then incubated with 2.5 μg/mL horseradish peroxidase-conjugated anti-human Fc antibody (Jackson ImmunoResearch Laboratories, West Grove, Pa.) for 1 h at room temperature with shaking. After 5 washes with ELISA C, 100 μL of OPD in citrate buffer (5 mg of o-phenylenediamine in 63 mM sodium citrate, 37 mM citric acid, pH 5.0, 0.03% H₂O₂) was added for detection. After 2-5 minutes, the reaction was stopped with 1 N H₂SO₄. The plates were read at 490 nm using SoftMaxPro software.

[5] = biological target: T1, recombinant human FGF6; assay: SPR (Biacore T100), FGFR-Fc captured on protein A, FGF6 analyte with heparin, bivalent analyte model (KD1)
Method: as §1, §2, §3

[6] = biological target: T1, recombinant human FGF6; assay: SPR (Biacore T100), FGFR-Fc captured on protein A, FGF6 analyte with heparin, bivalent analyte model (kd1)
Method: as §1, §2, §3

[7] = biological target: T3, recombinant human FGF-17 (human, UniProt O60258 23-216); assay: direct binding ELISA, FGF-17 coated, FGFR-Fc titrated with heparin, anti-human Fc-HRP
T3 sequence (looked up): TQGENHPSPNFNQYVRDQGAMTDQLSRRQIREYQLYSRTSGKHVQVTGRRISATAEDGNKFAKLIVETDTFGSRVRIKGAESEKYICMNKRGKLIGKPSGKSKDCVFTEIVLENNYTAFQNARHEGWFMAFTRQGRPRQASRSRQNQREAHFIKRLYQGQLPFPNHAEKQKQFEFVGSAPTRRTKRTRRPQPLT
Method: as §4

[8] = biological target: T2, recombinant human FGF-8b; assay: cell-based or functional assay
[9] = biological target: T4, recombinant human FGF4 (human, UniProt P08620 31-206, limits assumed); assay: cell-based or functional assay
T4 sequence (looked up): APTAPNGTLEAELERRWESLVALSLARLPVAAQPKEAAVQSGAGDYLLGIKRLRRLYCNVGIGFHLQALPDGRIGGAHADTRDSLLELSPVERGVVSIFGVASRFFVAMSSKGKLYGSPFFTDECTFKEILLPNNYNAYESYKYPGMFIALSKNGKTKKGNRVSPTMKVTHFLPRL

[10] = biological target: recombinant human FGF2 (human, UniProt P09038 143-288, limits assumed); assay: cell-based or functional assay
Sequence of recombinant human FGF2 (P09038 143-288 limits assumed): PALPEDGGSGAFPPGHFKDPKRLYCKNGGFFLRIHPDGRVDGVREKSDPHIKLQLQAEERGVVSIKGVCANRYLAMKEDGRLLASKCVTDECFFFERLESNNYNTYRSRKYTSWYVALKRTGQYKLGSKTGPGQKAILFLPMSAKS

[11] = biological target: recombinant human FGF1 (human, UniProt P05230 16-155); assay: cell-based or functional assay
Sequence of recombinant human FGF1 (P05230 16-155 limits assumed): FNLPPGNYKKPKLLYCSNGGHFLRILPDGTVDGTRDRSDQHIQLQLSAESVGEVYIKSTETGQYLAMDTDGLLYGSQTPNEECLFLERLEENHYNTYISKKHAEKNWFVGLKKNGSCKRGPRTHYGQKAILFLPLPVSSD

[12] = biological target: T1, recombinant human FGF6; assay: cell-based or functional assay

B1: FGFR3IIIc(143-375) Fc5, truncated FGFR3-Fc (A2518F) (Fc fusion)
chain: DTGVDTGAPYWTRPERMDKKLLAVPAANTVRFRCPAAGNPTPSISWLKNGREFRGEHRIGGIKLRHQQWSLVMESVVPSDRGNYTCVVENKFGSIRQTYTLDVLERSPHRPILQAGLPANQTAVLGSDVEFHCKVYSDAQPHIQWLKHVEVNGSKVGPDGTPYVTVLKTAGANTTDKELEVLSLHNVTFEDAGEYTCLAGNSIGFSHHSAWLVVLPAEEELVEADEAGSVYAGEPKSSDKTHTCPPCPAPEAEGAPSVFLFPPKPKDTLMISRTPEVTCVVVDVSHEDPEVKFNWYVDGVEVHNAKTKPREEQYNSTYRVVSVLTVLHQDWLNGKEYKCKVSNKALPSSIEKTISKAKGQPREPQVYTLPPSRDELTKNQVSLTCLVKGFYPSDIAVEWESNGQPENNYKTTPPVLDSDGSFFLYSKLTVDKSRWQQGNVFSCSVMHEALHNHYTQKSLSLSPGK
notes: This is the form with the second and third Ig-like domains; also called FGFR3 A2518F; FGFR3IIIc(143_375) C(Fc5)
In the case of B1, the Ka [1] is reported as 3e+06 M⁻¹, the “Proliferation IC50, FGF-9-stimulated HCO osteoblasts (3H-thymidine)” value [2] is reported as 0.77 nM and the kon [3] is reported as 200000 M⁻¹ s⁻¹. The IC50 [4] was 16.4 nM, the Kd [5] was 300 nM and the koff [6] was 0.06 s⁻¹. For the same binder, the IC50 [7] was 3.79 nM.

B2: FGFR3IIIc(143-375)(P250R) Fc5, truncated FGFR3-Fc P250R (A2519F) (Fc fusion)
chain: B1 chain with P108R
notes: also called FGFR3 A2519F; FGFR3IIIc(143_375) (P250R) C(Fc5)
B2 was tested, and the Ka [1] was 5e+07 M⁻¹, the “Proliferation IC50, FGF-9-stimulated HCO osteoblasts (3H-thymidine)” value [2] was 0.99 nM and the kon [3] was 200000 M⁻¹ s⁻¹. For the same binder, the IC50 [4] was 9.7 nM, the “Proliferation IC50, FGF8b-stimulated LNCap cells (3H-thymidine)” value [8] was 0.01 nM and the Kd [5] was 20 nM. For the same binder, the koff [6] was 0.004 s⁻¹ and the IC50 [7] was 37.6 nM.

B3: FGFR3IIIc(143-375)(S249W) Fc5, truncated FGFR3-Fc S249W (A2258F) (Fc fusion)
chain: B1 chain with S107W
notes: also called FGFR3 A2258F; FGFR3A2258F
In the case of B3, the Ka [1] is reported as 5e+08 M⁻¹, the “Proliferation IC50, FGF-9-stimulated HCO osteoblasts (3H-thymidine)” value [2] is reported as 0.75 nM and the kon [3] is reported as 300000 M⁻¹ s⁻¹. The IC50 [4] was 10 nM, the “IC50, FGF-stimulated HUVEC proliferation (3H-thymidine)” value [9] was 0.68 nM and the “IC50, FGF-stimulated HUVEC proliferation (3H-thymidine)” value [10] was 0.67 nM. For the same binder, the “IC50, FGF-stimulated HUVEC proliferation (3H-thymidine)” value [11] was 0.55 nM, the “IC50, FGF-stimulated HUVEC proliferation (3H-thymidine)” value [12] was 0.78 nM and the “Proliferation IC50, FGF8b-stimulated LNCap cells (3H-thymidine)” value [8] was 0.02 nM. It also gave a Kd [5] of 2 nM, a koff [6] of 0.0006 s⁻¹ and an IC50 [7] of 1.31 nM.

B4: FGFR2alphaIIIc(145-377)(S252W) Fc5, truncated FGFR2-Fc S252W (A2560F) (Fc fusion)
chain: SENSNNKRAPYWTNTEKMEKRLHAVPAANTVKFRCPAGGNPMPTMRWLKNGKEFKQEHRIGGYKVRNQHWSLIMESVVPSDKGNYTCVVENEYGSINHTYHLDVVERWPHRPILQAGLPANASTVVGGDVEFVCKVYSDAQPHIQWIKHVEKNGSKYGPDGLPYLKVLKAAGVNTTDKEIEVLYIRNVTFEDAGEYTCLAGNSIGISFHSAWLTVLPAPGREKEITASPDYLEEPKSSDKTHTCPPCPAPEAEGAPSVFLFPPKPKDTLMISRTPEVTCVVVDVSHEDPEVKFNWYVDGVEVHNAKTKPREEQYNSTYRVVSVLTVLHQDWLNGKEYKCKVSNKALPSSIEKTISKAKGQPREPQVYTLPPSRDELTKNQVSLTCLVKGFYPSDIAVEWESNGQPENNYKTTPPVLDSDGSFFLYSKLTVDKSRWQQGNVFSCSVMHEALHNHYTQKSLSLSPGK
notes: also called FGFR2 A2560F; construct #1949
For B4, the IC50 [7] was 223 nM.

B5: FGFR3IIIc(23-375) Fc5, full-length FGFR3-Fc (A2257F) (Fc fusion)
chain: ESLGTEQRVVGRAAEVPGPEPGQQEQLVFGSGDAVELSCPPPGGGPMGPTVWVKDGTGLVPSERVLVGPQRLQVLNASHEDSGAYSCRQRLTQRVLCHFSVRVTDAPSSGDDEDGEDEAEDTGVDTGAPYWTRPERMDKKLLAVPAANTVRFRCPAAGNPTPSISWLKNGREFRGEHRIGGIKLRHQQWSLVMESVVPSDRGNYTCVVENKFGSIRQTYTLDVLERSPHRPILQAGLPANQTAVLGSDVEFHCKVYSDAQPHIQWLKHVEVNGSKVGPDGTPYVTVLKTAGANTTDKELEVLSLHNVTFEDAGEYTCLAGNSIGFSHHSAWLVVLPAEEELVEADEAGSVYAGEPKSSDKTHTCPPCPAPEAEGAPSVFLFPPKPKDTLMISRTPEVTCVVVDVSHEDPEVKFNWYVDGVEVHNAKTKPREEQYNSTYRVVSVLTVLHQDWLNGKEYKCKVSNKALPSSIEKTISKAKGQPREPQVYTLPPSRDELTKNQVSLTCLVKGFYPSDIAVEWESNGQPENNYKTTPPVLDSDGSFFLYSKLTVDKSRWQQGNVFSCSVMHEALHNHYTQKSLSLSPGK
notes: also called FGFR3 A2257F; FGFR3IIIc(23_375) C(Fc5)
With B5 the Ka [1] was 7e+06 M⁻¹, the “Proliferation IC50, FGF-9-stimulated HCO osteoblasts (3H-thymidine)” value [2] was 1.19 nM and the kon [3] was 400000 M⁻¹ s⁻¹. It also gave an IC50 [4] of 41.9 nM, a Kd [5] of 200 nM and a koff [6] of 0.06 s⁻¹. The IC50 [7] was 20.1 nM.

B6: FGFR3IIIc(23-375)(P250R) Fc5, full-length FGFR3-Fc P250R (A2259F) (Fc fusion)
chain: B5 chain with P228R
notes: also called FGFR3 A2259F; FGFR3IIIc(23_375) (P250R) C(Fc5)
For B6, the Ka [1] was 6e+07 M⁻¹, the “Proliferation IC50, FGF-9-stimulated HCO osteoblasts (3H-thymidine)” value [2] was 1.14 nM and the kon [3] was 300000 M⁻¹ s⁻¹. It also gave an IC50 [4] of 52.6 nM, a Kd [5] of 20 nM and a koff [6] of 0.005 s⁻¹. It also gave an IC50 [7] of 45.3 nM.
